Experimental data from US7008623 (GlaxoSmithKline, dated 2006).

Tests used:
[1] = biological target: T1, soluble CD23 (sCD23) (human, UniProt P06734 150-321, limits assumed); test: ELISA, sCD23 coated on plate, antibody concentration for half-maximal binding (log-logit fit)
T1 sequence (looked up): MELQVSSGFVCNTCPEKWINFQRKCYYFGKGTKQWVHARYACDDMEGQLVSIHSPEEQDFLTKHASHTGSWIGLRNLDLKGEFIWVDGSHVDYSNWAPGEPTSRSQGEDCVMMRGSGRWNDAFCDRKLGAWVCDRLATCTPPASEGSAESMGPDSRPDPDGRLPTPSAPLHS
Method: (§1) The chimaeric antibody bound sCD23 in an ELISA assay. For the ELISA assay to determine sCD23 binding, EIA/RIA plates (Costar) were coated with 100 µl/well of 2 µg/ml sCD23 in 35 mM NaHCO_3, 15 mM Na_2CO_3, pH 9.3 overnight at 4° C. Plates were washed three times with 150 mM NaCl, 50 mM Trizma base, 0.1% (v/v) Tween-20, pH 7.4 (TBS/Tween), blocked for 1–2 hours at 22° C. with 100 µl/well of 2% bovine serum albumin in TBS/Tween, and washed three times with TBS/Tween.
(§2) The concentration of chimeric and humanised anti-CD23 antibody required for half-maximal binding to sCD23 was assayed using the sCD23 ELISA already described. Absorbance at 405 nm was plotted versus a range of concentrations of antibody to generate a sigmoidal curve with a "goodness of fit" or correlation coefficient of 1. The absorbance was read using a Molecular Devices plate reader (Menlo Park, Calif., USA) and Softmax (Molecular Devices Corp) software to calculate best fit by a log-logit algorithm then display the curve, equation parameters and correlation coefficient. A discussion of curve fitting appears in "Data Analysis and Quality Control of Assays: A Practical Primer", by R P Channing Rogers in Practical Immuno Assay, editor Wilfrid R Butt; published by Marcel Dekker, Inc., New York 1984. […] The value for x in ng/ml was calculated for the following equation: […]

[2] = biological target: T1, soluble CD23 (sCD23); test: ELISA, plate coated with sCD23, OD against antibody concentration
Method: as §1, §2

[3] = biological target: T2, purified recombinant CD23 (human, UniProt P06734 150-321, limits assumed); test: Biacore SPR, recombinant CD23 immobilised on CM5, antibody in solution; upper end of the range over 6 batches
T2 construct: also called CD23 antigen; immobilised CD23
T2 sequence (looked up): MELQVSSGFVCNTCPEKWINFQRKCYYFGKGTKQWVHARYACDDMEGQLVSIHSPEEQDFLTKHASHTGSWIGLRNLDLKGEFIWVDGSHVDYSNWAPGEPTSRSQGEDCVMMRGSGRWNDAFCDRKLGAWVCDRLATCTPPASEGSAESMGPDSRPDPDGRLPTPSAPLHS
Method: (§3) The association rate, dissociation rate and the dissociation rate constant for the binding of humanised anti-CD23 to the CD23 antigen was evaluated on the Biacore Biosensor. Briefly, purified recombinant CD23 was immobilised onto a CM5 sensor surface. Carboxyl groups on the dextran surface were activated by 1-ethyl-3(3-dimethylaminopropyl) carbidimide (EDCO/N-hydroxysuccimimide (NHS). Following activation, recombinant CD23 was passed over the surface to initiate immobilisation. Ethanolamine was then added to quench residual active groups. Humanised anti-CD23 diluted in HBS buffer was passed over the sensor surface. Binding of anti-CD23 to immobilised CD23 was monitored in real time for estimation of the association rate (M^-1 seq^-1). Dissociation of the CD23 and the anti-CD23 complex in buffer was also monitored for estimation of the dissociation rate (sec^-1). The dissociation constant (nM) was calculated from the dissociation and association rate. […] The affinity constant was determined to be approximately 9 ×10^10 Ka mol^-1.

[4] = biological target: T2, purified recombinant CD23; test: Biacore SPR, recombinant CD23 immobilised on CM5, antibody in solution; lower end of the range over 6 batches
Method: as §3

[5] = biological target: T2, purified recombinant CD23; test: Biacore SPR, recombinant CD23 immobilised on CM5; affinity (association) constant
Method: as §3

[6] = biological target: T2, purified recombinant CD23; test: Biacore SPR, recombinant CD23 immobilised on CM5, calculated from the rates; lower end of the range over 6 batches
Method: as §3

B1: chimaeric anti-CD23 antibody (murine C11 variable regions, human gamma 1 and human kappa constant regions) (antibody, human IgG1, V domains shown)
VH: EVKLEESGGGLVQPGGSMKLSCVASGFTFSGYWMSWVRQSPEKGLEWVAEIRLKSDNYATHYAESVKGKFTISRDDSKSRLYLQMNSLRAEDSGVYYCTDFIDWGQGTL
VL: DIVITQDELSNPVTSGESVSISCRSSKSLLYKDGKTYLNWFLQRPGQSPQLLMYLMSTRASGVSDRFSGSGSGTDFTLEISRVKAEDVGVYYCQQLVEYPFTFGSGTKLEIKR
notes: The VH is fused to the human IgG1 (gamma 1) constant region of Reichmann et al 1988 and the VL to the human kappa constant region of Reichmann et al 1988; It was transiently expressed in COS cells and tested as supernatant; The variable regions were amplified with signal-peptide primers, so the entries may include a leader, and no cleavage site is stated; also called chimeric CD23; chimaeric CD23 …
EC50 [1]: 0.0163 µg/mL
EC50 (read off the curve) [2]: ~0.06 µg/mL

B2: humanised anti-CD23 antibody (IgG1 with mutations 248 Leu to Ala and 250 Gly to Ala, human kappa) (antibody, V domains shown)
VH: EVQLVESGGGLVKPGGSLRLSCAASGFTFSGYWMSWVRQAPGKGLEWVAEIRLKSDNYATHYAESVKGKFTISRDDSKSRLYLQMNSLKTEDTAVYYCTDFIDWGQGTLVTVSS
VL: DIVMTQSPLSLPVTPGEPASISCRSSKSLLYKDGKTYLNWYLQKPGQSPQLLIYLMSTRASGVPDRFSGSGSGTDFTLKISRVEAEDVGVYYCQQLVEYPFTFGQGTKVEIKR
notes: The light chain constant region is human kappa; also called humanised CD23 IgG1m
EC50 [1]: 0.015 µg/mL
koff [3]: 2e-05 s⁻¹
koff [4]: 1e-05 s⁻¹
kon [4]: 1.5e+06 to 1.85e+06 M⁻¹ s⁻¹
Ka [5]: ~9e+10 M⁻¹
EC50 (read off the curve) [2]: ~0.03 µg/mL
Kd [6]: 0.008 to 0.012 nM
